Patent US20150232546A1 (THROMBOGENICS, published 2015)
Read-outs that look alike come from different tables or passages of the source. Ends that are not written are not given here. * marks the point of attachment. Biotin = O=C1N[C@H]2[C@H](CS[C@H]2CCCCC(=O)*)N1

T1: human PDGF-C peptide no. 9 (human)
T1 peptide: Biotin-FPHTYPRNTVLVWRL

T2: human PDGF-C peptide no. 27 (human)
T2 peptide: Biotin-EPGFCIHYNIVMPQF

T3: human PDGF-C peptide no. 58 (human)
T3 peptide: Biotin-VLQLRPKTGVRGLHK


What was measured:
[1] = target: T4, Recombinant human PDGF-C from R&D Systems (1687-CC/CF; Val235-Gly345) (human, UniProt Q9NRA1 235-345); assay: cell-based or functional assay
[2] = target: T4, Recombinant human PDGF-C from R&D …; assay: cell-based or functional assay; remark: listed apart in the source
[3] = target: T4, Recombinant human PDGF-C from R&D …; assay: cell-based or functional assay; remark: listed apart in the source
[4] = target: T1, human PDGF-C peptide no. 9; assay: peptide ELISA, signal to background >3
Experimental: (§1) The indicated peptides where synthesized in an N-terminally biotinylated form and coated onto a neutravidin plate (Thermo Scientific, Cat. 15127) at a concentration of 10 μg/mL. […] Each antibody was tested at least twice, and up to 4 times. A “+” in the table indicate that a signal to background >3 was found and confirmed at least once. The background signal was measured in the absence of peptide using both the primary and the secondary antibodies.

[5] = target: T2, human PDGF-C peptide no. 27; assay: peptide ELISA, signal to background >3
Experimental: as §1

[6] = target: T3, human PDGF-C peptide no. 58; assay: peptide ELISA, signal to background >3
Experimental: as §1

[7] = target: T4, Recombinant human PDGF-C from R&D …; assay: SPR (Biacore 3000), antibody amine-coupled to CM5 chip, PDGF-C injected, 1:1 fit
Experimental: (§2) The different antibodies were each separately coated to a CM5 chip at a density of 1680 RU using standard amine chemistry. Different concentrations (200, 175, 150, 125, 100, 75, 50, 25, 12.5, 6.25, 3.125 & 0 nM) of PDGF-C (R&D Systems, Cat. 1687-CC/CF) were injected over the coated antibody for 5 min, then buffer was flowed for 10 min to monitor the dissociation of the captured antigen. The surface was regeneration between each run with a single injection of glycine-HCl, pH 2.5. Affinities were obtained by analyzing the sensorgrams with the help of the BIAevaluation 4.1 software assuming a 1:1 interaction. The experiment was performed with a Biacore 3000 instrument.

[8] = target: T4, Recombinant human PDGF-C from R&D …; assay: SPR as in Example 3
Experimental: as §2
The affinity of the above-listed exemplary humanized anti-PDGF-C antibodies for PDGF-C was analysed (as in Example 3) and the humanized antibodies were subsequently assessed in the in vitro bioassay described in Example 4. A technical problem with the (preparation of) humanized antibody 5H7 may explain why this antibody is apparently not inhibiting activation of PDGFR-α although it is still binding with high affinity to PDGF-C; this is under further investigation.

[9] = target: T4, Recombinant human PDGF-C from R&D …; assay: cell-based or functional assay; remark: listed apart in the source

T4 sequence (Q9NRA1 235-345 limits assumed, form in doubt): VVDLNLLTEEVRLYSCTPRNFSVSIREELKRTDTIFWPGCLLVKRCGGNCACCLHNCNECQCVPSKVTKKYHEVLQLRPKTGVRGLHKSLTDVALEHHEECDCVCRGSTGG

| Binder | % PDGF-Rα activation by PDGF-C allowed at 1.85 µg/mL antibody (100% = no antibody) [1] [%] | IC50 value (nM), PathHunter PDGFRα assay [2] [nM] | % PDGFRα activation in the PathHunter PDGFRα assay at 5.56 µg/ml antibody with PDGF-CC at EC80 (no Ab with PDGF-CC = 100, no Ab without PDGF-CC = 24) [3] [%] | % PDGFRα activation in the PathHunter PDGFRα assay at 16.67 µg/ml antibody with PDGF-CC at EC80 (no Ab with PDGF-CC = 100, no Ab without PDGF-CC = 24) [3] [%] | % PDGFRα activation in the PathHunter PDGFRα assay at 50 µg/ml antibody with PDGF-CC at EC80 (no Ab with PDGF-CC = 100, no Ab without PDGF-CC = 24) [3] [%] | binding result [4] | binding result [5] | binding result [6] | Kd [7] [nM] | Kd [8] [nM] | IC50 value (nM), PathHunter PDGFRα assay [9] [nM] |
| --- | --- | --- | --- | --- | --- | --- | --- | --- | --- | --- | --- |
| anti-PDGF-C antibody 5A2 (antibody, IgG2b, V domains shown, Mouse monoclonal from hybridoma, IgG2b, kappa; also called mAb 5A2; hybridoma LMBP 9484CB) VH: EVQLVESGGDLVKPGGSLKLSCAASGFTFSNYGMSWVRQTPDKRLEWVATIGSGGHYTYYPDSVKGRFTISRDSAKSTLYLQMSSLKSEDTAIYYCARQAPLWDCSDYWGQGTTLTVSS VL: DVLMTQTPLSLPVSLGDQASISCRSNQSIVHSNGDTYLEWYLQKPGQSPKLLIYKVSNRFSGVPDRFSGSGSGTDFTLKISRVEAEDLGVYYCFQGSHVPPTFGGGTKLEIK | 30 | 3.36 | 20 | 17 | 18 | binds | binds | binds | 5 |  |  |
| anti-PDGF-C antibody 5H7 (antibody, IgG1, V domains shown, Mouse monoclonal from hybridoma, IgG1, kappa; also called mAb 5H7; hybridoma LMBP 9485CB) VH: EVQLVESGGDLVKPGGSLKLSCAASGFTFSSYGMSWVRQTPDKRLEWVATIGYGGSFTYYPDSMKGRFTISRDNAKNTLFLQMSSLKSEDTAIYYCVRQAPLWDYFDYWGQGTTLTVSS VL: DVLMTQTPLSLPVSLGDQASISCRSSQTIVHSDGTTYLEWYLQKAGQSPKLLIYKVSNRFSGVPDRFSGSGSGTDFTLKISRVEAEDLGVYYCFQGSHVPPTFGGGTKLEIK | 32 | 5.57 | 24 | 22 | 22 |  |  | binds | 2.5 |  |  |
| anti-PDGF-C antibody 2D3 (antibody, IgG1, V domains shown, Mouse monoclonal from hybridoma, IgG1, kappa; also called mAb 2D3; hybridoma LMBP 9483CB) VH: EVQLVESGGDLVKPGGSLKLSCAASGFTFSNYGMSWVRQTPDKRLEWVATIGSGGSYTYYPDSVKGRFTISRDSAKNTLYLQMSSLKSEDTAMYYCARQAPLWDYSDYWGQGTTLTVSS VL: DVLMTQTPLSLPVSLGDQASISCRSNQTIVHSNGDTYLEWYLQKPGQSPNLLIYKVSNRFSGVPDRFSGSGSGTDFTLKISRVEAEDLGVYYCFQGSHVPPTFGGGTKLEIK | 49 | 7.47 | 32 | 24 | 23 |  |  |  | 1.5 |  |  |
| anti-PDGF-C antibody 29H1 (antibody, IgG1, V domains shown, Mouse monoclonal from hybridoma, IgG1, kappa; also called mAb 29H1; hybridoma LMBP 9487CB) VH: EVQLVESGGDLVKPGGSLKLSCAASGFTFSNYGMSWVRQTPDKRLEWVATIGSGGHYTYYPDSVKGRFTISRDSAKSTLYLQMSSLRSDDTAIYYCARQAPLWDCSDYWGQGTTLTVSS VL: DVLMTQTPLSLPVSLGDQASISCRSNQSIVHSNGDTYLEWYLQKPGQSPNLLIYKVSNRFSGVPDRFSGSGSGTDFTLKISRVEAEDLGVYYCFQGSHVPPTFGGGTKLEIK | 23 |  | 22 | 21 | 22 |  |  | binds | 1.5 |  |  |
| anti-PDGF-C antibody 16B1 (antibody, IgG1, V domains shown, Mouse monoclonal from hybridoma, IgG1, kappa; VH same as 2D3, VL same as 5A2; also called mAb 16B1; hybridoma LMBP 9486CB) VH: EVQLVESGGDLVKPGGSLKLSCAASGFTFSNYGMSWVRQTPDKRLEWVATIGSGGSYTYYPDSVKGRFTISRDSAKNTLYLQMSSLKSEDTAMYYCARQAPLWDYSDYWGQGTTLTVSS VL: DVLMTQTPLSLPVSLGDQASISCRSNQSIVHSNGDTYLEWYLQKPGQSPKLLIYKVSNRFSGVPDRFSGSGSGTDFTLKISRVEAEDLGVYYCFQGSHVPPTFGGGTKLEIK | 38 | 8.38 | 24 | 23 | 20 |  |  |  | 1.2 |  |  |
| recombinant human PDGFRα Fc chimera (6765-PR from R&D Systems) (Fc fusion, not shown: a dimerising Fc or GST) QLSLPSILPNENEKVVQLNSSFSLRCFGESEVSWQYPMSEEESSDVEIRNEENNSGLFVTVLEVSSASAAHTGLYTCYYNHTQTEENELEGRHIYIYVPDPDVAFVPLGMTDYLVIVEDDDSAIIPCRTTDPETPVTLHNSEGVVPASYDSRQGFNGTFTVGPYICEATVKGKKFQTIPFNVYALKATSELDLEMEALKTVYKSGETIVVTCAVFNNEVVDLQWTYPGEVKGKGITMLEEIKVPSIKLVYTLTVPEATVKDSGDYECAARQATREVKEMKKVTISVHEKGFIEIKPTFSQLEAVNLHEVKHFVVEVRAYPPPRISWLKNNLTLIENLTEITTDVEKIQEIRYRSKLKLIRAKEEDSGHYTIVAQNEDAVKSYTFELLTQVPSSILDLVDDHHGSTGGQTVRCTAEGTPLPDIEWMICKDIKKCNNETSWTILANNVSNIITEIHSRDRSTVEGRVTFAKVEETIAVRCLAKNLLGAENRELKLVAPTLRSEIEGRMD |  | 0.65 |  |  |  |  |  |  |  |  |  |
| Humanized 5H7 anti-PDGF-C antibody (antibody, V domains shown, also called humanized mAb 5H7) VH: EVQLLESGGGLVQPGGSLRLSCAASGFTFSSYGMSWVRQTPGKGLEWVATIGYGGSFTYYPDSMKGRFTISRDNAKNTLYLQMNSLRAEDTAVYYCARQAPLWDYFDYWGQGTLLTVSS VL: DVVMTQSPLSLPVTLGQPASISCRSSQTIVHSDGTTYLEWYLQKPGQSPRLLIYKVSNRFSGVPDRFSGSGSGTDFTLKISRVEAEDVGVYYCFQGSHVPPTFGQGTKLEIK |  |  |  |  |  |  |  |  |  | 2.5 |  |
| Humanized 16B1 anti-PDGF-C antibody (antibody, V domains shown, also called humanized mAb 16B1) VH: EVQLLESGGGLVQPGGSLRLSCAASGFTFSNYGMSWVRQTPGKGLEWVATIGSGGSYTYYPDSVKGRFTISRDNAKNTLYLQMNSLRAEDTAVYYCARQAPLWDYSDYWGQGTLLTVSS VL: DVVMTQSPLSLPVTLGQPASISCRSNQSIVHSNGDTYLEWYLQKPGQSPRLLIYKVSNRFSGVPDRFSGSGSGTDFTLKISRVEAEDVGVYYCFQGSHVPPTFGQGTKLEIK |  |  |  |  |  |  |  |  |  | 0.8 | 4.97 |
